Tested on: Saccharomyces cerevisiae
Test: transcriptional activation domain activity (GFP:mCherry ratio, weighted mean of sorted bins, harmonized to initial dataset scale) (arbitrary fluorescence ratio units); higher = stronger transcriptional activation
Conditions: beta-estradiol 1 µM; induction time 4 h
In short: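 Sorting into 8 bins by GFP:mCherry ratio followed a 4-hour hold at 30 °C after cultures were diluted 1:5 into SC with 1 uM beta-estradiol. The yeast diploids carried a GFP reporter and had barcoded protein tiles, fused to an estradiol-inducible synthetic transcription factor, integrated at URA3. Barcodes were then sequenced, and tiles with under 50 reads were removed. Activation activity is the read-weighted mean of bin median fluorescence, averaged across barcodes and linearly mapped onto the initial dataset scale.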

| Sequence | transcriptional activation domain activity |
| --- | --- |
| IKKGAASPSKKGGRGSAKAKKEESDDEDVKPAKKAKGAAAAKGKPKGKALKKE | 24200 |
| IKLMDLLIILLKIHGFRLKYFLLTNDLFPKIMLLCRANHLSLQLCPVRFLRIC | 81100 |
| IKLMTLLYVFCRCSAVANVIYTVAITSSLDTLRVTYRISSVISLLCRTSVMMV | 43300 |
| IKPEEPVVAAAEEPATAPVVEETKPEEVAAEVAAEEDAAPVEEATPAEEVKPE | 12400 |
| IKPEIMGLLEIHRSIAQDIGVSLLTELINPNVSIGKMLRNCITVFTLINTLRH | 77500 |
| IKQQWSVFVLWSIWYRIAFTPVFWRNLGRRNLGGLIMILMNEYREVILFYWDM | 48500 |
| IKVQYKGGLIGHQFKDLAQIMSFILYDLGPDTLIECWVRLGWFMSLLWYPKIQ | 58700 |
| ILAGCCLGYACNKWGSITVFKYYGIPWLFLNHWFVMITYLHHTDPTIPHYRGK | 73500 |
| ILALNLSCFDTLCYCYGFWSRLFFYLLLLLMHHLHYHAIQNQSLDLFALHIYR | 78000 |
| ILALSWGGGLYPWASYHVLVPLILGFCILVVFALYEIYMPLKYPLIPMSLFLN | 40400 |
| ILCASLHLLGHLPFRFCDVVLLFICHMFQELGRFDLIPGPVAHLTLRHSIVAA | 63500 |
| ILCLSFSIKVLLCFLLIFFPLNVEPPPPDFFFHFLCLWFFFVISFLRFHLLYF | 59900 |
| ILDDFFNDGACNEINVILDKAKVRRDFLDYFMPEKEVKAEGDRSIVYILSNPK | 59200 |
| ILDLTVRFWGNVKLLRRLWNGIYHFASYHMSSMTRAKVTIVSDLLLGTYILKR | 70700 |
| ILENKGLNEDLSSHIYEKEAPKFDSDIDISRFGTNDAVIFNNDGWDTSLPIDF | 102000 |
| ILFCSWLSFRQLFFLFICNTHHWVFEDYFCHFSFFLSLFLMAITWKCFFFFFF | 38900 |
| ILFFCLVANSDKLHMIIFAVVPIRCVFPVFFLIFEVIINCWLPLVWHLLYNLT | 43800 |

| Sequence | transcriptional activation domain activity |
| --- | --- |
| ILFIGGLFLIIAPQMTFHVPAYRIRLCEAACFLCRNFLVFLKRKSVAVIVEMF | 59000 |
| ILFMLFYYLSIYFIGTLGGIWLATYIMSFRENLVIQLVIARVCFIVALGVVMA | 35400 |
| ILGKLLYHMILLYLCVDLSLSEQIEHLSAATHLTMILYRLGGKDFIPTNLYIN | 45000 |
| ILGRLCRVRVLGFNDVLVRVDIILCLHLDTPAEAVFRVQRLVSLMGMLALQVF | 41300 |
| ILHCFIIPLLFLVGFLSFLSLPCLLAVAFLIFMSILNLLLLGFLLLLWILLFF | 41200 |
| ILHELTIVVACHRWNHGLFFFFQMMQIPIIMYSDKIPWFRDQHALRNWCFWLA | 58000 |
| ILIIVFFYVHFLGVLIFLVGGYYHTKVAHGSYWIWPSFVFWAFDRFVRVVRLV | 48500 |
| ILKRNMYFIIPLLLLLLGTVALAIYDTIWLLMRTYARGHLSHSHRFWSLLFYS | 55700 |
| ILLAAHQILFIFCCWLFTITVCIPLSVIYYLFAILRLIKHYLLHRRPLIAYFL | 56900 |
| ILLANLECFPKEKIWDKTIVGGRCLDPIQVKLIWVYNAAVNLGLDVVILILPQ | 32200 |
| ILLEVLGKVRGDHTPKRQETSVQGIRRRFRDDLAFLCEYDKGGIACTAIGIEE | 12500 |
| ILLGLLVLVLLYANVVLIIYHEPTFRRPLDMAFIHAPIRLFFILPFGVLFWYS | 63100 |
| ILLHIYVLGVCYFTFPLFLNGFAHWGLWKLDRITPVENLVQQYILKPYFKSYC | 62900 |
| ILLIVRFIWRSPYLISTGCGSLINDFSYVNIFLYSKIFCERFFIFLSLVIFIK | 66800 |
| ILLMELILHTVYCVAISKWGHWEAFSVYEISLIGYMRLSFIWLKLLVIWRFAR | 88100 |
| ILLMLATGQWRLLIDALVSMSDIEVQFFLRQLALCKLVNWKASIVNGYPSPVE | 52400 |
| ILLPIFGLANRDKNVELMRWALKQCNRTLRRKRAHIWYFSRWLMRPMLPQQRS | 66600 |
